From the nanobody polyreactivity screen of Harvey et al. (2022)

Experiment: yeast display, Sf9 membrane polyspecificity reagent, FACS + sequencing; frameworks hold sequencing errors
In short: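 A nanobody's polyreactivity label depends on the gate it was sorted from. Yeast display cells were stained with 10% biotinylated, detergent-solubilized Sf9 membrane reagent for 1 hour at 4 °C, enriched on streptavidin microbeads and sorted by FACS. The low and high (top ~1%) gates were set on anti-HA fluorescence for expression and streptavidin fluorescence for reagent binding.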
For “QVQLVESGGGLVQAGGSLRLSCAASGLTFNYYAMGWSRPAPGKERELVAAISSDGRTDYADSVKGRFTISRDNAKNTVYLQMNSLKPEDTAVSYCAASWYRWGKSWRQYDYWGQGTQVTVSL”, the “polyreactivity (PSR sort gate)” value was “low polyreactivity”.
For “QVQLVESGGGLVQAGGSLRLSCAASGSTFRYNAMGWYRPAPGKERELVAAITSGGGTNYADSVKGRFTISRDNAKNTVYLQMNSLKPEDTAVYYCAAPWGLGSELLKRDYWGQGTQVTVSS”, the “polyreactivity (PSR sort gate)” value was “low polyreactivity”.
With “QVQLVESGGGLVQAGGSLRLSCAASGSIFPYYAMGWYRQAPGKERELVAAITLSGGRTYYADSVKGRFTISRDNAKNTVYLQMNSLKPEDTAVYYCNVYRSKKRYGWGEDDYWGQCTQVTVSS” the “polyreactivity (PSR sort gate)” value was “high polyreactivity”.
For “QVQLIESGGGLVQAGGSLRLSCAASGNIFAVYAMGWYRQAPGKERELVASITVSGASTYYADSVKGRFTISRDNAKNTVYLQMNSLKPEDTAVYYCAARIGSNQRKRYYWGQGTQVTVSS”, the “polyreactivity (PSR sort gate)” value was “high polyreactivity”.
For “QVQLVESGGGLVQAGGSLRLSCAASGNTFGRYAMGWYRQAPGKERELVAAITKRGGTTYYADSVKGRFTISRDNAKNTVYLKMNSLKPEDTAVYYCAAKRSVLRTADYDYWGQGTQVTVSS”, the “polyreactivity (PSR sort gate)” value was “high polyreactivity”.
In the case of “QVQLVESGGGLVQAGGSLRLSCAASGRTFRVYAMGWYRQAPGKERELVAAINGGGSTNYADSVKGRFTISRDNAKNTVYLQMNSLKPEDTAVYYCIATGRRSKRIYDYWGQGTQVTVSS”, the “polyreactivity (PSR sort gate)” value is reported as “high polyreactivity”.
With “QVQLVESGGGLVQAGGSLRLSCAASGITFETYAMGWYRPAPGTVRELVAAISSGTDDTYYADSVKGRFTISRDNATNTVYLQMNSLKPEDTAVYYCAALGYATGSWRYYYWGQGTQVTVSS” the “polyreactivity (PSR sort gate)” value was “low polyreactivity”.
For “QVQLVESGGGLVQAGGSLRLSCAASGITFGAYAMGWYRQAPGKEMELVAVITRGADTYYADSVKGRFTISRDNAKNTVYLQMNSLKPEDTAVYDCAAEIDLPYYYGSDDDDYWGQGTQVTVSS”, the “polyreactivity (PSR sort gate)” value was “high polyreactivity”.
With “QVQLVESGGGLVQAARSHRVSCAASGSIFWGNVKGWYRQAPGNESELVAAINSGGSTYYADSVKGRFTISRDNAKNTVYLQMNSLIPEDTAVYYCAAAINRYRGTFNYWGQGTQVSVSS” the “polyreactivity (PSR sort gate)” value was “high polyreactivity”.
For “KFQLVESGGGLVQAGGRLRLSCAASGSTFWDYAMGWYRQATGKERQLVAVITSSGGGTYYADSVKGRFTISRDNSKNTVYLLMNSLKPEDTAVYYCAKKRPYSNGGYYWGQGSQVTVSS”, the “polyreactivity (PSR sort gate)” value was “high polyreactivity”.
In the case of “QVQLVESGGGLVQAGGSLRLSCAASGFTFPYYAMGWYRQAPGKERELVAAISSGGRTNYADSVKGRFTISRDNAKNTVYLQMNSLKPEDTAVYYCATRSYVFAWEFNYWGQGTQVTVSS”, the “polyreactivity (PSR sort gate)” value is reported as “high polyreactivity”.
With “QVQLVESGGVLVQAGGSLRLSCAASGSILHDYAMGWYRQAPGKERELVASINWSGGRTYYADSVKGRFTISRDNAKNTVYLQRNRLTPEDTAVYYCSADPSWLHVSHAPTFGLDYWGQGSQVTVSS” the “polyreactivity (PSR sort gate)” value was “high polyreactivity”.
With “QVQLVESGGGLVHAGGSLRLSCAASGFTFAYNAMGWYRQAPGKERELVAAIRRRGGITYYADSVKGRFTISRDNAKNTVYLQMNSLKPEDTAVYYCNAVRSYPAGYDSWGQGTQVTVSS” the “polyreactivity (PSR sort gate)” value was “low polyreactivity”.
In the case of “QVQLVESGGGLVQAGGSLRLSCAASGRTFVFNAMGWYRQAPGKERELVAAITISGGSTYYADSVKGRFTISRDNAKNTVYLQMNSLKPEDTAVYYCNADSKIEVFSYIYDYWGQGTQVTVSS”, the “polyreactivity (PSR sort gate)” value is reported as “high polyreactivity”.
With “QVQLVESGGGLVQAAGSLRLSCAASGITFSRNGMGWYRQAPGKERELFAAISTSGDSTDYADSVKGRFTISRDNAKNTVYLQMNSLKPEDTAVYYCNRDFSLVVHYKFDYWGQGTQVTVSS” the “polyreactivity (PSR sort gate)” value was “low polyreactivity”.
In the case of “QVHLVESGGGLVQAGGSLRLSCAASGIIFYRYAMGWYRQAPGKERELVAAISWRGTSTYYADSVKARFTISRDNANNTVYLQMNSLKPEDTEVYYCNAGVRRKYGEYYYWGQGTQVTVSS”, the “polyreactivity (PSR sort gate)” value is reported as “high polyreactivity”.
With “QVQLVESGGGLVQAGGSLGLSCAASGIIFGTYGMGWYRQAPGKERELVAAITTRGSSTYYADSVKGRFTISRDNAKNSVYLQMNSLKPEDTAVYYCAAVSVRRNRMDSWGQGTQVTVSS” the “polyreactivity (PSR sort gate)” value was “high polyreactivity”.
With “QVQLVESGGGLVQAGGSLRLSCAASGRIFWGYAMGWYRQAPGKERELVARITSGGDTYYADSVKGRFTISRDNAKNTVYLQMNSLKPEDTAVYYCNADVGTEWDNYPEVDYWGQGTQVTVSS” the “polyreactivity (PSR sort gate)” value was “low polyreactivity”.
With “QVQLVESGGGLVQAGGSLRLSCAASGSTFKAYAMGWYRQAPGKEWELVAAISASGGTTYYADSVKGRFTISRDNAKNTVYLQLKSLKPEDTAVYYCNARHPYTGGRRYPYTRYGYWGQGTQVTVSS” the “polyreactivity (PSR sort gate)” value was “high polyreactivity”.
For “QVQLVESGGGLVQAGGSLRLSCAASGFTFGSYAKGWYRQAPGKERELVAAIRASGGRTYYADSVKGRFTISRDNAKNTVFLQMNSLKPEDTAVYYCAADTGGNPKYDYWGQGTQVTVSS”, the “polyreactivity (PSR sort gate)” value was “high polyreactivity”.
With “QVQLVESGGGLVQAGGSLRLRCAASGLIFPYYAMGWYRQAPGKERELVAGITSDGSTNYADSVKGRFTLSRDNAKNTVYLQMNSLKPEDTAVYYCNARGVYFWWRLDYWGQGTQVTVSS” the “polyreactivity (PSR sort gate)” value was “low polyreactivity”.
For “QVQLVESGGGLVKAGGSLRLSCAASGRIFGRYAMGWYRQAPGKEREFVAAISKRGGGTYYADSVKGRFTISRDNAKNTVYLQMNSLKPEDTAVYYCAVDNSPGFDDYDYWGQGTQVTVSS”, the “polyreactivity (PSR sort gate)” value was “high polyreactivity”.
With “QFQLVESGGGLVQAGGRLRLSCAASGSTFLPYAMGWYRQAPGKESELVAAIRGRGGRTYYADSVKGRFTISRANAKNTVYLQMNSLKPEDSAVYYCAADVKGLSWTYDSWGQGTQVTVSS” the “polyreactivity (PSR sort gate)” value was “high polyreactivity”.
With “QVQLVESGGGLVQAGGSLRLSCAASGLTFYPYAMGWYRQAPGKESELVAAINWSGTTTYYADSVKGRFTISRDNAKNTVYLQMNSLKPADTAVYYCNADVYYEPTTGYYLWDYDYWGQGTQVTVSS” the “polyreactivity (PSR sort gate)” value was “low polyreactivity”.
With “QVQIVESVGRLVQAGCSLRLSCDASGRIFGTNAKGWYSQAPGKDRELFAAINGSDSSTYYADSVKGRFTISRDNAKNSDYLQMNSLKPEDNAVYYCNADWSRAPERSTYGYDYWGHGTQVTVSS” the “polyreactivity (PSR sort gate)” value was “low polyreactivity”.
With “QVQLEESGGGLVQAGGSLRLSCAASGGTFLAYALGWYRQAPGKERELVATITSGGSTNYADSVKGRFTISRDNAKNTVYLQMNSLKPEDTAVYYCAASGRDFIAESPYDYWGQGTQVTVSS” the “polyreactivity (PSR sort gate)” value was “low polyreactivity”.
For “QVQLVESGGGLVQAGGSLRLSCAASGSIFVYNDMGWYRQAPGKERELVAGIDWSGDRTYADSVKGRFTISRDNAKYTVYLQMNSLKPEDTAVYYCNAERYPYRLRARKLDYWGQGTQVTVSS”, the “polyreactivity (PSR sort gate)” value was “low polyreactivity”.
In the case of “QVQLVESGGGLVQAGGSLRLSCAASGSTFAANAMGWDRQAPGKERELVAAITSGGGSTYYADSVKGRFTISRDNAKNTVYLQMNSLKPEDTAVYYCAALQSHGVDYDYWGQGSQVTVSS”, the “polyreactivity (PSR sort gate)” value is reported as “low polyreactivity”.
In the case of “QVQLVESGGGLVQAGGSLRLSCAASGFTFYPNTMGWYRQAPGKERELVAAISSSGGRTYYADSVKGRFTISRDNAKNTVYLQMNSLKPEDTAVYYCNAAKWLTSGGLDYWGLGTQVTVSS”, the “polyreactivity (PSR sort gate)” value is reported as “high polyreactivity”.
In the case of “QVQLVESGGGLVQAGGSLRLSCAASGLTFGNNAMGWYRQAPGKERELVAAISSDGTTYYADSVKGRFTISRDNAKNTVYLQMNSLKPEDTAVYYCNAAAEISSFDYDYWGQGTQVTVSS”, the “polyreactivity (PSR sort gate)” value is reported as “low polyreactivity”.
In the case of “QVQLVESGGGLVQAGGSLRLSCAASGSIFPPYVMGWYRQAPGKERELVASITTSGGSTYYADSVKGRFTISRDNAKNTVYLQIKSLKPEDTAVYYCAARWYYGGKSAGPGGGYWGQGTQVTVSA”, the “polyreactivity (PSR sort gate)” value is reported as “low polyreactivity”.
In the case of “QVQLVESGGGLVQAGGSLRLSCAASGSTINWNAMGWYRQAPGKERELVASINRGDSTYYADSVKGRFTISRDNAKNTVYLQMNSLKPEDTAVYYCAARRYYSLRTFLYCFSKYDYWGQGTQVTVSS”, the “polyreactivity (PSR sort gate)” value is reported as “high polyreactivity”.
For “QVQLVESGGGLFQAGGSLRLSSAASGIIFSTYAMGWYRQAHGKERELVAAITSTGSTNYADSVKGRFTISRDNAKNTVYLQMNSLKPEDTAVYYCAAEGHTAFLVYRVSPLQYDYWGQGTQVTVSS”, the “polyreactivity (PSR sort gate)” value was “low polyreactivity”.
For “QVQLVESGGGLVQAGGSLRLSCAASGSTFGYYAMGWYRQAPGKERELVAAITSGGSKKYADSVKGRFTISRDNAKNTVYLQMNSLKPEDTAVYYCATSRYFGYGYWGQGTQVTVSS”, the “polyreactivity (PSR sort gate)” value was “low polyreactivity”.
For “QVQLVESGGGLVQAGGSLRLSCAASGRTFGTYAMGWYRQEPGKERELFATISSGGSTYYADSVKGRFTISRDNAKNTVYLLMNSLKPEDTAVYYCAAYRYFRPGDYWGQGTQVNVSS”, the “polyreactivity (PSR sort gate)” value was “low polyreactivity”.
With “QVQLVESGGGLVQAGGSLRLSCAASGSTFDVYAMGWYRQAPGKERELVAAITSGGTTNYADSVKGRFTISRDNAKNTVYLQMNSLKPEDTAVYYCAKDSRNVYWDYGYWGQGTQVTVSS” the “polyreactivity (PSR sort gate)” value was “low polyreactivity”.
For “QVQLVESGGGLVQAGGSLRLSCAASGSIFYVYAMGWYRQAPGKERELVAAITNYADSVKGRFTISRDNAKNTVYLQMNSLKPEDTAVYYCAADWWRVEMDYWGQGTQVTVSS”, the “polyreactivity (PSR sort gate)” value was “low polyreactivity”.
In the case of “QVQLVESGGGLVQAGGSLRLSCAASGRIFGYNAMGWYRQAPGKERDLVAAITTSGGSTYYADSVKGRFTISRDNAKNTVYLQMNSLKPEDTAVYYCARDSLQVFYPYASDDYWGQGTQVTVSS”, the “polyreactivity (PSR sort gate)” value is reported as “low polyreactivity”.
In the case of “QVQLVESGGGLVQAGGSLRLSCAASGSIFDYNAMGWYIQAPGKEREFVAAITYSGGSTYYADSVKGRFTISRDNAKYTVYLQMYSLKPEDSAVYYCGADYFQHVPKYGYCGQGTQVTVSS”, the “polyreactivity (PSR sort gate)” value is reported as “low polyreactivity”.
In the case of “QVQLVESGGGLVQAGGSLRLSCAASGRTFFYNAMGWYRQAPGKERELVAAISSGGGSTYYADSVKGRFTISRDNAKNTVYLQMNSLKPEDTAVYYCNAYKGQTGGGGRYGYWGQGTQVTVSS”, the “polyreactivity (PSR sort gate)” value is reported as “high polyreactivity”.
With “QVQLVESGGGLVQAGGSLRLSCAASGRLFIIYAMGWYRQAPGKERELVAAINRGATTNYADSVKGRFTISRDNAKYTVYLQMNSLKPEDTAVYYCAARGVAKLRRVGYWGQGTQVTVSS” the “polyreactivity (PSR sort gate)” value was “high polyreactivity”.
In the case of “QVQLVESGGGLVQAGGSLRLSFAPSGRIVPNAMGWYRQAPGKDREMVAAISRSGGSTYYADSVKGRFTISRDNAKNTVYLQMNSLKPEDTAVYYCAKRSTSQSLQGEYWGQGTQVTVSS”, the “polyreactivity (PSR sort gate)” value is reported as “high polyreactivity”.
With “QVQLVESGGGLVQAGGSLRLSCAASGRIFLYYTMGWYRQAPGKERELVATIRSGDSTNYADSVKGRFTISRDNAKNTVYLQMNSLKPEDTAVYYCAADWDIFQQGANGAPYDYWGQGTQVTVSS” the “polyreactivity (PSR sort gate)” value was “low polyreactivity”.
